The values below come from patent EP4818204A1 (Nanjing Leads Biolabs Co., Ltd., dated 2026).

By Kd is commonly meant the free concentration of one partner at which half of the binding sites on the other are occupied at equilibrium, for simple one-to-one binding. One may read the koff as the rate constant with which the complex falls apart. Higher therefore signals a short-lived complex. One may read the kon as the second-order rate constant of association. A low value points to slow association.

For assay [1], the target named is T1, human BMP2 protein (human, UniProt P12643 283-396).
T1 construct: Bought
The assay is described as follows: ELISA, coated protein, antibody at 4 µg/mL. Background: ELISA stands for enzyme-linked immunosorbent assay.

For assay [2], the target named is T2, human Activin B protein (human, UniProt P09529 293-407).
T2 construct: Bought; Activin B is by nature a dimer of inhibin beta B chains
T2 sequence (looked up): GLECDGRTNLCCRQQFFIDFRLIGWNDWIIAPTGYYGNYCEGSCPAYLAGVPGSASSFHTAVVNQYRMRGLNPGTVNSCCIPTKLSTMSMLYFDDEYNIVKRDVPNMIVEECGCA
The assay is described as follows: ELISA, coated protein, antibody at 4 µg/mL.

The target in assay [3] is T3, human Activin A protein (human, UniProt P08476 311-426).
T3 construct: Bought; Activin A is by nature a dimer of inhibin beta A chains
T3 sequence (looked up): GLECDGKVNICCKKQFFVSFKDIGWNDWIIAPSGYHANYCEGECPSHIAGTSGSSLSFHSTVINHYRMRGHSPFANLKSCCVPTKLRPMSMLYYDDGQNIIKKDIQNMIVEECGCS
The assay is described as follows: ELISA, coated protein, antibody at 4 µg/mL.

In assay [4] the target is T1, human BMP2 protein. The assay is described as follows: ELISA, coated protein, antibody at 4 µg/mL. This is another data set of the same source.
Assay [5] deals with T4, human GDF1 protein (human, UniProt P27539 254-372, limits assumed).
T4 construct: Bought
T4 sequence (looked up): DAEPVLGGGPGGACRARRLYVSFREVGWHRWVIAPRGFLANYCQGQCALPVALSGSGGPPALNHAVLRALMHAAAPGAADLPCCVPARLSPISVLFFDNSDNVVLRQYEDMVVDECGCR
The assay is described as follows: ELISA, coated protein, antibody at 4 µg/mL.

The target in assay [6] is T5, human GDF2 protein (human, UniProt Q9UK05 320-429).
T5 construct: Bought
T5 sequence (looked up): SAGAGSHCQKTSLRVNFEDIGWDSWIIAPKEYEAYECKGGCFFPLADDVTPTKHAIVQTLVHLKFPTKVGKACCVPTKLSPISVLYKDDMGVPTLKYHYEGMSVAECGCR
The assay is described as follows: ELISA, coated protein, antibody at 4 µg/mL.

Assay [7] deals with T2, human Activin B protein. The assay is described as follows: ELISA, coated protein, antibody at 4 µg/mL. This is another data set of the same source.
Assay [8] has as its target T3, human Activin A protein. The assay is described as follows: ELISA, coated protein, antibody at 4 µg/mL. The source holds these as a separate data set.
Assay [9] deals with T6, Human GDF15 protein (human, UniProt Q99988 197-308).
T6 construct: Natural GDF15 is said to be a disulfide-linked homodimer; also called Human-GDF15-his
T6 sequence: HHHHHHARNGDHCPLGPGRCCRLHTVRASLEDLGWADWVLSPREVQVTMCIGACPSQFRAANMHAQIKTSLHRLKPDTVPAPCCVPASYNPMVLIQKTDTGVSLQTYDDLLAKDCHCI
The assay is described as follows: ELISA, coated protein, antibody at 4 µg/mL.

Assay [10] deals with human AMH protein (human) (UniProt P03971). The assay is described as follows: ELISA, coated protein, antibody at 4 µg/mL.
The target in assay [11] is T7, human GFRα1 protein (human, UniProt P56159 25-429, limits assumed).
T7 construct: Bought
T7 sequence (looked up): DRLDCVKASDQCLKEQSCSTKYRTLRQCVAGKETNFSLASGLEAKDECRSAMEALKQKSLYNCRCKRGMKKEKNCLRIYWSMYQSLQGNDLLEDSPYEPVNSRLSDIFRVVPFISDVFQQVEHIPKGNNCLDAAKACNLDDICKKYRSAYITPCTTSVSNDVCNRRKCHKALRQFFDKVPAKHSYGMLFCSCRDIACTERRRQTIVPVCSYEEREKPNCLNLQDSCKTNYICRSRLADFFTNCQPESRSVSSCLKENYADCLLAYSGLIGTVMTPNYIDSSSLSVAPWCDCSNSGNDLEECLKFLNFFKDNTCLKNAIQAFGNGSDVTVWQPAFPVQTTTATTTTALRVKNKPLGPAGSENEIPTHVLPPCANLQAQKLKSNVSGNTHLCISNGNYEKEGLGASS
The assay is described as follows: ELISA, coated protein, antibody at 4 µg/mL.

Assay [12] deals with T8, human GDNF protein (human, UniProt P39905 78-211).
T8 construct: Bought
T8 sequence (looked up): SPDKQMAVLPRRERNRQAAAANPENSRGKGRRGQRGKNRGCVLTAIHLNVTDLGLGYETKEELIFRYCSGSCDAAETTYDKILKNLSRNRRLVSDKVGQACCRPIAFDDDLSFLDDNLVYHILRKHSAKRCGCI
The assay is described as follows: ELISA, coated protein, antibody at 4 µg/mL.

In assay [13] the target is T9, human GDF3 protein (human, UniProt Q9NR23 251-364, limits assumed).
T9 construct: Bought
T9 sequence (looked up): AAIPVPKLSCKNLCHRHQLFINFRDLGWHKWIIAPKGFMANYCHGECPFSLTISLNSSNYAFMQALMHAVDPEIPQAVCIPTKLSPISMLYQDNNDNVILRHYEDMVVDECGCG
The assay is described as follows: ELISA, coated protein, antibody at 4 µg/mL.

Assay [14] concerns the target T10, human BMP4 protein (human, UniProt P12644 293-408).
T10 construct: Bought
T10 sequence (looked up): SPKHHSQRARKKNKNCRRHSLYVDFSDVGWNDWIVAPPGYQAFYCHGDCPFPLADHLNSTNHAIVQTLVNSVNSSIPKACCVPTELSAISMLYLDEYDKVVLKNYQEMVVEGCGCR
The assay is described as follows: ELISA, coated protein, antibody at 4 µg/mL.

The target in assay [15] is T11, human TGFβ1 protein (human, UniProt P01137 279-390).
T11 construct: Bought
The assay is described as follows: ELISA, coated protein, antibody at 4 µg/mL.

Assay [16] has as its target T12, human GDF11 protein (human, UniProt O95390 299-407).
T12 construct: Bought
T12 sequence (looked up): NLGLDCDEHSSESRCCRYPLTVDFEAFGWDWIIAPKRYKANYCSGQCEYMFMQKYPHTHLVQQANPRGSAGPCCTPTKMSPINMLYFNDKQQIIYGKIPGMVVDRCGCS
The assay is described as follows: ELISA, coated protein, antibody at 4 µg/mL.

Assay [17] deals with human GDF8 protein (human) (UniProt O14793). The assay is described as follows: ELISA, coated protein, antibody at 4 µg/mL.
For assay [18], the target named is T13, human FcRn protein (human, UniProt P55899 24-297).
T13 construct: Bought, loaded on a streptavidin (SA) sensor; FcRn is by nature a heterodimer with beta-2-microglobulin
The assay is described as follows: BLI (Octet RED96e), FcRn on SA sensor, antibody as analyte, binding and dissociation at pH 6.0, 1:1 model. Background: In BLI a coated tip is dipped into the sample, and binding shifts an interference pattern.

Assay [19] addresses T1, human BMP2 protein. The assay is described as follows: ELISA, coated protein.
The target in assay [20] is T4, human GDF1 protein. The assay is described as follows: ELISA, coated protein.
In assay [21] the target is T5, human GDF2 protein. The assay is described as follows: ELISA, coated protein.
The target of assay [22] is T2, human Activin B protein. The assay is described as follows: ELISA, coated protein.
Assay [23] deals with T3, human Activin A protein. The assay is described as follows: ELISA, coated protein.
Assay [24] addresses T7, human GFRα1 protein. The assay is described as follows: ELISA, coated protein.
In assay [25] the target is T9, human GDF3 protein. The assay is described as follows: ELISA, coated protein.
The target of assay [26] is T10, human BMP4 protein. The assay is described as follows: ELISA, coated protein.
Assay [27] concerns the target T11, human TGFβ1 protein. The assay is described as follows: ELISA, coated protein.
The target in assay [28] is T12, human GDF11 protein. The assay is described as follows: ELISA, coated protein.
For assay [29], the target named is T1, human BMP2 protein. The assay is described as follows: ELISA, coated protein, antibody at 4 µg/mL. This is another data set of the same source.
Assay [30] has as its target T4, human GDF1 protein. The assay is described as follows: ELISA, coated protein, antibody at 4 µg/mL. The source holds these as a separate data set.
Assay [31] concerns the target T5, human GDF2 protein. The assay is described as follows: ELISA, coated protein, antibody at 4 µg/mL. The source holds these as a separate data set.
Assay [32] addresses T2, human Activin B protein. The assay is described as follows: ELISA, coated protein, antibody at 4 µg/mL. This is another data set of the same source.
Assay [33] concerns the target T3, human Activin A protein. The assay is described as follows: ELISA, coated protein, antibody at 4 µg/mL. This is another data set of the same source.
The target in assay [34] is T7, human GFRα1 protein. The assay is described as follows: ELISA, coated protein, antibody at 4 µg/mL. This is another data set of the same source.
Assay [35] concerns the target T9, human GDF3 protein. The assay is described as follows: ELISA, coated protein, antibody at 4 µg/mL. The source holds these as a separate data set.
Assay [36] deals with T10, human BMP4 protein. The assay is described as follows: ELISA, coated protein, antibody at 4 µg/mL. The source holds these as a separate data set.
Assay [37] deals with T11, human TGFβ1 protein. The assay is described as follows: ELISA, coated protein, antibody at 4 µg/mL. The source holds these as a separate data set.
The target of assay [38] is T12, human GDF11 protein. The assay is described as follows: ELISA, coated protein, antibody at 4 µg/mL. This is another data set of the same source.

Like-named read-outs stand apart in the source and are kept apart here.

T1 sequence (P12643 283-396 limits assumed): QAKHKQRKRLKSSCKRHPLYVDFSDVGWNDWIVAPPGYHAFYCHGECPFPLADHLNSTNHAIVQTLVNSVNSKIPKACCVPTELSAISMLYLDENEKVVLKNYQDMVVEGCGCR
T11 sequence (P01137 279-390 limits assumed): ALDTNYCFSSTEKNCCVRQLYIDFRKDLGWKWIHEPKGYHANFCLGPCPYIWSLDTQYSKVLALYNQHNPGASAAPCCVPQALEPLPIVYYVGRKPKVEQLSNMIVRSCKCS
T13 sequence (P55899 24-297 limits assumed, form in doubt): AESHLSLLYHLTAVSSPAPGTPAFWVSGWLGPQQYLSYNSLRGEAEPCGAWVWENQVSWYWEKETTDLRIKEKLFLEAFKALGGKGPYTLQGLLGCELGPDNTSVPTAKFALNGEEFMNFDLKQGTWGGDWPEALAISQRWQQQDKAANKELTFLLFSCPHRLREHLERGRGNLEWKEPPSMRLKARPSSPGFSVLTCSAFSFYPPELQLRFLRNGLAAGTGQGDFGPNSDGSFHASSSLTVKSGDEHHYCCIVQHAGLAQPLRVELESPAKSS

On to Ponsegromab (antibody), for which the OD value (OD 450 nm-620 nm) in assay [1] stood at 0.265; in assay [2], 0.187; in [3] it was 0.0698; in [4] it was 0.227; in [5], 0.0818; in assay [6] it was 0.555. For the same molecule, the OD value (OD 450 nm-620 nm) in assay [7] was 0.156; in assay [8] it was 0.0863; in assay [9], 3.33; in assay [10], 0.0754; in [11], 0.124; in assay [12], 1.21. For the same molecule, the OD value (OD 450 nm-620 nm) in [13] amounted to 0.0676; in assay [14], 0.0639; in [15], 0.129; in assay [16], 0.0375; in assay [17] it was 0.0755.

B1: hu19C4C7-YTE (antibody, human IgG1, kappa)
heavy: QVQLVQSGAEVKKPGSSVKVSCKASGYSFTGYIMNWVRQAPGQSLEWMGDIDPYYGGPNYNQKFQGRVTITVDKSTSTAYMELSSLRSEDTAVYYCSRRDYNYGSFAYWGQGTLVTVSSASTKGPSVFPLAPSSKSTSGGTAALGCLVKDYFPEPVTVSWNSGALTSGVHTFPAVLQSSGLYSLSSVVTVPSSSLGTQTYICNVNHKPSNTKVDKKVEPKSCDKTHTCPPCPAPEAAGAPSVFLFPPKPKDTLYITREPEVTCVVVDVSHEDPEVKFNWYVDGVEVHNAKTKPREEQYNSTYRVVSVLTVLHQDWLNGKEYKCKVSNKALPAPIEKTISKAKGQPREPQVYTLPPSREEMTKNQVSLTCLVKGFYPSDIAVEWESNGQPENNYKTTPPVLDSDGSFFLYSKLTVDKSRWQQGNVFSCSVMHEALHNHYTQKSLSLSPGK
light: QIVLTQSPATLSLSPGERATLSCRASSSVNYMHWYQQKPGQAPRPLIYATSNLATGIPARFSGSGSGTDYTLTISSLEPEDFAVYYCQQWSDNPPTFGQGTKLEIKRTVAAPSVFIFPPSDEQLKSGTASVVCLLNNFYPREAKVQWKVDNALQSGNSQESVTEQDSKDSTYSLSSTLTLSKADYEKHKVYACEVTHQGLSSPVTKSFNRGEC
notes: Hu19C4C7 with human IgG1 constant region carrying L234A, L235A, G237A, M252Y, S254T, T256E (EU numbering); also called hu19C4C7-YTE-IgG1-mut
In the case of B1, the affinity in [18], expressed as Kd, was 2.89 nM. Moreover, in assay [18], the koff was 0.00257 s⁻¹. Moreover, the kon in assay [18] is 889000 M⁻¹ s⁻¹. In addition, the binding result in [19], in assay [20], in [21], in assay [22], in [23] and in [24] was “no binding (tested: 4 µg/mL)” each time. The binding result in [25], in [26], in assay [27] and in assay [28] was “no binding (tested: 4 µg/mL)” each time. Also, the OD value (OD 450 nm-620 nm) is 2.39 in assay [9], 0.0409 in [10], 0.296 in [12] and 0.0508 in assay [17]. The OD value in [29] worked out at 0.0973 OD 450 nm-620 nm; in assay [30], 0.144 OD 450 nm-620 nm; in [31], 0.0643 OD 450 nm-620 nm; in assay [32] it was 0.114 OD 450 nm-620 nm; in assay [33] it was 0.0582 OD 450 nm-620 nm; in [34], 0.132 OD 450 nm-620 nm. The OD value is 0.0907 OD 450 nm-620 nm in assay [35], 0.0595 OD 450 nm-620 nm in assay [36], 0.114 OD 450 nm-620 nm in assay [37] and 0.0709 OD 450 nm-620 nm in assay [38].
